From patent publication US20240026407A1, “MODIFICATION OF SAPONINS” (GLAXOSMITHKLINE BIOLOGICALS SA, priority 2020, published 2024)

B1: 1020 (protein, listed as Rhodonellum psychrophilum)
chain: MKSLSKILTTVTLLLAVFACEKKPAEIVLFSMMDGVEGLSGKTEYLASPYVTAGDRVYMVGHQDGSFPDLGWHVEGEMGGIWNHPIKLMDGFTNAIEIEGNRFCLDNASAFINYPFANKHEFKNSVPGLEVERFQFVPDGKQGLVIEYLFKNVDKSKKSFVFEFDGHTDLMPVWLGDRAGMIDHVDNLVFDDQRQAWRGKDEGNEWYVLFGANQTASHSQGDSSLCNYFPQGKGKSAKLSYEMELSANGEGSLKFFIAGSYSGLDDVQKTFDLIKTHPETFLKDKRTNYDRIASLSKITIPDKELEKTFEWVKYNTEWLVRDIPEVGRGLGAGMPDYPWWFGVDNEYTLKGAIATGRKDLVYATVDLIHKLSVQENDNGKIVHEVSTNGVVFNPGNINETPQFASLIWYVYQWTGDKAFLEKYYPTIKKGLVWLMEENDKDGNLFPDGYGMMEIHGLESEMIDVAVYTQKAFADAAQMALLMAEPEVARSYQQTADLMKAKINTDFWVESANSYADFIGTAAETFPLVDAAIIRADTLGKPWAVEELKLLRKKLSTYPRNKKQGFVLFHNWVVNTPMEMGIADPEKAIKALDKGSKFVNPFGVFVTGIDRDEASQSEDGSFTGSKVFSYTGAVMTLPTGVQAISENNYGRPDQALAYLQMMVKSFGFALPGSIYEVSPDYGMMAQAWNLYSFGVPIVTQFFGIQPDAGNKVIHISTQMPSDWDSAKIEKVLIGDNVLTLSFLRVEGEIQLQINQTKGDWQIDFVFPTGKYNVWKVGGKEVEKTRVGNQEVFRTSGTSISASFK
B2: 1000 (protein, listed as Aspergillus terreus)
chain: MALSISQVAFEHHRTALGIGETQPRVSWRFDGNVSDWEQRAYEIEVKRAGHDADVFRSESSDSVLVPWPSSPLQSGEEATVRVRSFGSDGQHDTPWSDAVTVEPGLLTPDDWHDAVVIASDRPTEVDATHRPIQFRKEFSVDDSYVSARLYITALGLYEARINDQRVGDHVMAPGWQSYQYRHEYNTYDVTDLLKQGPNAIGVTVGEGWYSGRIGYDGGKRNIYGDTLGLLSLLVVTKSDGSKLYIPSDSSWKSSTGPIISSEIYDGEEYDSRLEQKGWSQVGFNSTGWLGTHELSFPKERLASPDGPPVRRVAEHKLANVFSSASGKTVLDFGQNLVGWLRIRVKGPKGQTIRFVHTEVMENGEVATRPLRQAKATDHFTLSGEGVQEWEPSFTYHGFRYVQVDGWPADTPLDENSVTAIVVHSDMERTGYFECSNPLISKLHENILWSMRGNFFSIPTDCPQRDERLGWTGDIHAFSRTANFIYDTAGFLRAWLKDARSEQLNHSYSLPYVIPNIHGNGETPTSIWGDAIVGVPWQLYESFGDKVMLEEQYGGAKDWVDKGIVRNDVGLWDRSTFQWADWLDPKAPADDPGDATTNKYLVSDAYLLHSTDMLANISTSLSKGEEASNYTEWHAKLTKEFQKAWITSNGTMANETQTGLALPLYFDLFPSAEQAQSAAKRLVNIIKQNDYKVGTGFAGTHLLGHTLSKYGESDAFYSMLRQTEVPSWLYQVVMNGTTTWERWDSMLPNGSINPGQMTSFNHYAVGSVGSWLHEVIGGLSPAEPGWRRINIEVVPGGDLQQASTKFLTPYGMASTKWWLDGQDQSCGGFDFHLVAEVPPNTRATVVLPGKGGEKVDVGSGVHEYHVRCVKL
B3: 1048 (protein, listed as Klebsiella oxytoca)
chain: MSQAIQHNSQVMMTRHPNFLRTAEALRPALSRQAHPPIAVVEAHADAAALFGWRAEPVSTLAAFYQRELSSGDSVIIDFGSHYVGYLHFLCQSAGSPPDAPAHLQLTFGETLSEVCEPFSDYQGWLSSSWLQQQDLWLDVLPAEIDLPRRYCFRYLKVEVKAVSRKFRLQFTQIEVNAVTSASGACPAATTSDPQLRAIDNVAVLTLQNCMQEVFEDGPKRDRRLWLGDLRLQALVNDVTFARHDLVRRCLYLFAGHTREDGMVSANVFVQPDVIADDTFLFDYSLFFVDVLYNYLQSAEDMATARELWPTARRQVELALTRCDASGVVRDSDDWWVFIDWQASLNKQAAAQGVLIYCLQRAIWLAERFEPELAVSYRQRLQQLKSAALDALWDPQQGFYVSGARRQVSWASQIWLVLAEVGTPQQRREIMRNLEKNPPAVAMNTPYLRHHYIAALLQCGLRDEAIAQIKAYWGAMVDYGADTFWEIFDPAHPDFSPYGSKLINSYCHAWSCTPAWFIRQYGL
B4: 1037 (protein, listed as Pedobacter heparinus)
chain: MNLKRHILLTAILMLNLSIAFSQVTLQNLRCEMLQNPLGIDVARPRLSWQIASTRNDVQQTAYHILVASSLAKLTENDADIWNSGKVNSAESLYNLYAGQTLKSKNKYYWKVKVYTSKGESSWSQPAFWLMGLLHYKDWEGRWIGFDRFFTGDNEAGARLSARYFRKEFSTTKTVASATAYLMGMGLYELYIDGQKIGDQVLAPTATDYTKNIKYNTLDVTEQLRQGGNHAIGVILGNGRFFAMRQSKAYKVKTFGLPKLLLQVNIKYTDGSTATIKTDDTWKGTADGPILANNEYDGEIYDARKEFKGWSEPGFKEDKWLRAEYVQEPGGTYEAQLNEGMKVMKTLSPVSITRRPNGNYILDFGQNFSGWVKFNVKGPRGTSVSLRFAESLEPNGELFRTNLRDARATDIYTLKGEGTETWAPRFTYQGFRYVELNGYPGVPQKSDFSGCLVYDDMKTAGTFESSNSLLNQIFKNAWWGIASNYKGMPVDCPQRNERQPWLGDRTVGAYGESFLFDNTALYKKWLDDIRYAQKEDGAIPDVAPAFWRYYSDNVTWPATLLFVADMLYRQTGDSTVIRKNYPAVKKWMSYMKDRYMSSEGIMTKDSYGDWCAPPATAEDGKGVNADQKHPSALIATAYYYHLANMMAGYSALTGNAGDREGYTRLAAEVKNAFNRKFYNSQGYYGDNKLTDNLLPVYFGLVEEADKGRVVMQICSIIEEKNNGHLSTGLIGTQFLMRTLTEAGRPDLAYRIASQKTYPSWGYMIENGATAIWELWNGNTAAPKMNSQNHVMMLGDLMIWYYENLAGIKAAAPGFKEITMKPELIEGLNNVTAGYQSVYGLIKSSWTKTGKKFSWNISIPPNTRAKAYLPASMQSQVKKGATADGAKYIMAENGRVVFELKSGEYAFVVEQ
B5: 1065 (protein, listed as Chitinophaga pinensis)
chain: MRIILTAAFLLITSIVSAQYNAWKGSWITNTEDTTATKAPYLRKTFTLDKKVVSATAYVAGVGYHIVFVNGKPVTDAVLEQAYTRYDKRLLYKVYDVTALLSRKGTQSIAAELGNGWYNIQSHAVWGFQNAPWRKTPRLLLDLVIRYDDGTTETIATDNSWKCATGPSQFNCLYSGEIYDARQEVAGWNQTAFNDAGWKQVLLTSSPGGALHEQIMPSIKVIRRIKPVSMKNLGNGKYLFDMGQNFAGVATLNVKGQAGTKVTMYYGEVLKNGELDMVHNTEHMRSMPGELRFQTDVYFLKGGAREVFTPRFVYHGFQYVQIETDQPLELNVHSLEGLFYSTAFEEAGHFTSSDPMINKLYEAARQSYRSNFLSIPTDCPQREKNGWTADAHISTEIGLWNYQTTEGYRKWLHDVRDAQLPSGAMPGIAPSNGWGYDRPGNEEFTFGPAWGSALGFVTWYMYLYHNDTALVREHYDAFKKYTDAVAKGAEGYLFKHGLDDWMSLVKTPMPLTSTAYFYTDAELVAKMARVLGNKADEQTYSRLADSIRAAFNRTYFDANTGVYKDSTMTALSAAVFHGLASPEAAAKTAAQLSSKVQRSNYHADFGVMGTKYVLPTLSDYGYADVAFRMLTDTGYAGWAHWIANGATTLFEDWPGELSHNHIFFGDYCAWYYKTLAGIRPDEAAPGFQHFYIQPAFVKALNFVKADYASSAGMIKVEWKRKGNSIKLSVEIPSRATVRLPAGMTDDKNATRITLNGQQFDQVVLTPGKYTFNLK
B6: 1029 (protein, listed as Rhodococcus jostii)
chain: MTTPTHLRLEHLRPGEPCGTTHPRLSWRLPTGSTGQQAYQVRVAGAFDRTSSTLFTTEIIEGRDHVLVRPWTATHPAPTAGEARTWQVRCWTDLGPSDWSEPATWVTGLLHGGDLTADWIEPYEPDVPPLGHRPVYRLRASWRPRAEIAHASLFATAHGIYEFFVNDVRVGDHELTPGFTSYRAHLQVQHFDVTDLLHPEHNDLGILLSDGWFRGRHGFERHGDSFGDRVAALAELHVRYADGTSERFGTGDGWTSTPSEIDAADLMDGQRVDLRRVPAGEVRHPAVVARGGLYDDRSRLTTGVAPPVRRIETLAAVAVTEPRPGTYVVDFGQNVNGWVTAADLGPAGTHATLTHGESLAADGSVDTDHLRAFEFATGTGLPAGQVDHVVSSGRAGEAFESRHTTHGFRYVQFDGLATKPGPGSVTAAVVHTDLEQVGSFGCDNDRLAKLHAAAVWSFRGNACDVPTDCPQRERSGFTGDWQVYVETAAFTHDVAGFSDKWLRDLAADQWPDGTVPNIVPNPAGNQPSGNHFADIANGSAGWGDAAVIVPWQLWRLYGDVEVLERQYDSMTRWVERAAGAARDRRHPDRARARPTPDAHEEYLWDTGFHWGEWLEPDEIPAPDPARDHSVVATAYLARSAELLAQIAGVLGRDRDECRYAAIAAGAVRAWQREFITPEGTLTHPTQANYVRALEFDLVPAEGRRRFADELAQLLVDNDYHLGTGFLATGMLLPALARNGHLDTAYRVLLSTGNPSWMEMIDRGATTIWERWDGVDENGRATASLNHYAKGAVISFLHQFVAGLRPAETTGPHTVGYRRFVVDPRPGGDINTAHAEHCSPYGNIAVRWTIADDVFTLSLTVPSGSECELRLGDTTELLRSGTYTRTCPAARVTQRSSRASPTR

Test: Experiment 6-1: specificity of rhamnosidases towards other rhamnose residues (C3 saccharide rhamnose, C28 saccharide rhamnose)
Assay type: biochemical, Quillaja saponaria
Conditions: TBE 2%, pH 7.5, 30 degC, 18 h; LCMS/MS; negative controls 0.18, 0.17

Going from B1 to B2, the “ratio PP/QS-21” value falls from 0.17 to 0.16.

B3 and B4 are the same in “ratio PP/QS-21” value: 0.17 for the first, 0.17 for the second.

First: B5
Second: B6
The “ratio PP/QS-21” value of the first is higher: 0.17 for the first, 0.16 for the second.

Test: Experiment 6-1: screening of rhamnosidases for derhamnosylation of saponins in treated bark extract (2%), QS-17 2296 to QS-18 2150 (PAR %)
Assay type: biochemical, Quillaja saponaria
Conditions: TBE 2%, pH 7.5, 30 degC, 18 h; TIC peak area ratio percent of rhamnosylated starting saponin to derhamnosylated product, LCMS/MS; negative controls 4.876, 5.225

Going from B1 to B2, the “QS-17 (PAR %)” value falls from 5.058% to 5.010%.

Compared with B3, B4 is lower in “QS-17 (PAR %)” value: 5.007% for the first, 4.972% for the second.

Going from B5 to B6, the “QS-17 (PAR %)” value falls from 5.015% to 4.926%.

Test: Experiment 6-1: screening of rhamnosidases for derhamnosylation of saponins in treated bark extract (2%), QS-17 2310 to QS-18 2164 (PAR %)
Assay type: biochemical, Quillaja saponaria
Conditions: TBE 2%, pH 7.5, 30 degC, 18 h; TIC peak area ratio percent, LCMS/MS; negative controls 3.061, 2.429

Going from B1 to B2, the “Peak57 (PAR %)” value falls from 3.288% to 3.119%.

Compared with B3, B4 is higher in “Peak57 (PAR %)” value: 2.465% for the first, 2.764% for the second.

Compared with B5, B6 is higher in “Peak57 (PAR %)” value: 3.194% for the first, 3.334% for the second.

Test: Experiment 6-1: screening of rhamnosidases for derhamnosylation of saponins in treated bark extract (2%), desglucosyl-QS-17 2134 to QS-21 1988 (PAR %)
Assay type: biochemical, Quillaja saponaria
Conditions: TBE 2%, pH 7.5, 30 degC, 18 h; TIC peak area ratio percent, LCMS/MS; negative controls 2.719, 2.158

First: B1
Second: B2
The “Peak75 (PAR %)” value of the first is lower: 2.360% for the first, 2.788% for the second.

First: B3
Second: B4
The “Peak75 (PAR %)” value of the first is higher: 2.441% for the first, 2.424% for the second.

Compared with B5, B6 is lower in “Peak75 (PAR %)” value: 2.458% for the first, 2.069% for the second.
